In the DeepSol protein solubility set:

Test: soluble on expression in E. coli; label from the status in PepcDB or PDB records
For “MSIESKIRQLIDQNGYITCDVLMQEVLNLNPTSYYKQVKSLANEGDFVTAPEISQLFGEIIGLWCIREWQRIGCPKSLSLVELGPGRGLLMRDLLRTAKLVPEFYKALSIELIEINKNFIAYQKANLQDINLPISHQSFVEDIPKKPTIIIANEFFDAIPIKQYIKVKELWYERIFVVQPVDERIKYDKISVNKQLQEYLLCTHIEAKDGAVLEESYKSIEIIKFIAQHLKRLSGSGLIIDYGYDIAPNGRTRYQYNQTLQAVKNHKYCPILENLGEADLSAHVDFYALKTVAKNSKINVIDTISQRDFLIENGILLRKQTLQDKLNDRHLAKFAYREEFKGDTKRSTAAYTLVREDASIGSTYKLPLEVEFGKMSEQAQIIERQVERLISPKQMGELFKVLQIMN”, the “soluble on expression in E. coli” value was “not soluble”. In the case of “MSIKKSPVYNVIAVPVEKVQANDYNPNVVAPPEMRLLELSIWEDGFTMPCVCYYDKEKDVYILVDGFHRYSVLKTSKRIFQRENGMLPIVVIEKDLSNRMSSTIRHNRARGTHNIELMCHIVAELDKAGMSDQWIMKNIGMDRDELLRLKQISGLADLFANRDFSVPEDDQPGNVDKKPTR”, the “soluble on expression in E. coli” value is reported as “not soluble”. In the case of “MSILVYDREHNFKKWYIYWIPKTKMLGVKDDKDVVYEKMCTLQERTDILKVSKSLVEEKWSSLFSESGLHIEEVCEKELVLTFALQRNITLERTELSGRFDECLYLEYLRLKTLTNVSPMKRKRTASTVEHVIRSDDIKPILAPKSDPVKKRTTRMAAKASGPEFDDE”, the “soluble on expression in E. coli” value is reported as “not soluble”. In the case of “MSIMSYTGGTVVAMAGDECVCIASDLRIGEQMTTIATDQKKVHKVTDKVYVGLAGFQSDARTVLEKIMFRKNLYELRENRNIKPQVLSEMISNLAYQHRFGSYFTEPLVAGLDDTNKPYICCMDTIGCVSAPRDFVAVGTGQEYLLGVCENFWRENMKPDELFEATAQSILSCLERDAASGWGAVVYTITKDKVNVSTIKARMD”, the “soluble on expression in E. coli” value is reported as “not soluble”. In the case of “MSIPKQLMIGSVPYEVEVVKGWIDEKENGEVRIAEVTYHEQQIKISDNVAKHEGQMKNVLHEAIHAMLYEYGLDRLNKEVNVNALTTVFFDFIKNNIRGGISSFVGYQYLLLKCPEKTNVEFYDSDTDPATLRFKKETDELSFINTAAELVETINQHPPEVDVSALGVAMAKAEVHKAVDLGVAHEQIQESAVKMTTDKQTRKLPIVDVNRSSFPMEEIAKITKKEETDPIHWKTGIKYDDEGTPRYRTRYECCMCGNRGNQYEYEENKFTKCHKCNAKLKIVQATKNGFPERDAFGNFYVANDEYSVILDGE”, the “soluble on expression in E. coli” value is reported as “not soluble”. With “MSIPVPMETGANSEAWKKANEALMKIQGGMSKGLNASNGNNNTGQNSWMNNSFSFPNPPSAYGQFGGGFHPSTWGSGPIVPPPPPQQSAVNATAQAAYNQASFNYAPPPPPQNWNNGYGRGRGGGANNWNQQQRPQQFQPFALNRKNNSSAFPHLTSTFVPQGGGPQPLMGVGRGRGVPAPGPAKPPPPSAQRYMERAFEAANTVEDRQKTQEYLQKRLFPMLNAGNAHMVNWDNEPLPHEKNYELAPAWTPANKLPHQANGFNRKKSPSRRRSDEMSNSGAAGGGGQMKRARRDSDGASSDSDNSDPLEKMHFSSMNQKKTKAQKKAEKAARKAAKKLQKQQTPQKVKNAWKVAGGDTEARREDRARRFAETLYNVSKPSVSVPQHYFRRGQVIRGTCQNIEKSFFRLTAAPNPSEVRPLEVLRLSLQNVRDKYRARAEYSYLTSQMRSIRQDLTVQVIRNEFTVEVYEINARISLENADREEFNKCQSQLKLLYSEIENCANQAEFVAYRLLYYIAMDNQIDINALLRELTPELKENDCVEFALNVRKAVTMNNYVKFFRLFKNAPRMCPYIMDLFVDRERKKALGIITKAFRPTITYKLIAEFLSMKESTLIDWLEEELKWTDVEVGGTFDPKIPRNI” the “soluble on expression in E. coli” value was “not soluble”. For “MSIRDWPEAERPREKLLEQGAAALSDAELLAIFLRTGVTGCSAVELSRRLLSEFGGLRALLEADLASFCGHLGLGVAKYAQLQAVLEMGRRHLAERLRRDSILESPQAVRDYLKARLRHEQHEVFACLFLDTRHRVLSFEVLFQGSIDGASVYPRQVVKRTLAHNAAALILTHNHPSGDARPSLADRQLTARLKEALALIDVRVLDHFIIGDGEPLSLAEYGWL”, the “soluble on expression in E. coli” value was “not soluble”. In the case of “MSISGLFILDLKGNVVISRNYRGDVDMSCIEKFMPLLVEKEDEGSASPVLVHQGISYTYIKYMNVYLVTISKKNTNVILVLSALYKIVEVFCEYFKTLEEEAVRDNFVIIYELFDEMLDFGYPQTTESKILQEFITQQGNRLETVRPPMAVTNAVSWRSEGIKYRKNEVFLDVIESVNMLANAQGTVLRSEIVGSIRFRVVLSGMPELRLGLNDKVFFQQSGASSRRGNSGKGVELEDIKFHQCVRLSRFDSERTISFIPPDGEFELMSYRLTTQVKPLIWVEAAVERHAHSRVEYMVKAKSQFKRQSVANHVEVIIPVPSDVSAPKFKTGAGTAKYVPELNAIVWSIRSFPGGREYIMRSSFMLPSIGSEELEGRPPINVKFEIPYYTTSGLQVRYLKIIEKSGYQALPWVRYVTQNGDYQMRMT”, the “soluble on expression in E. coli” value is reported as “not soluble”. In the case of “MSKETGKMAEEPPGSSSSAKPVTSSKKPPPNDVTTTTNTTKTTNSNQQEDMYLNGNNPYYGGFYANNRYLFPSTSSQATCIGTSSEDSPPPPPPSANGSIHRKHHQNANHHQNSRHAISDTVAVAGDDLSNVPAAVVIQLEKANRTIASQTLEIERLKSYQNQNLETHLLKKQIHDLEKEVRSGRSRFLEQQELLAEMSREMDILLREKLEMQRNSQELEKKYKKAKFASRELAKILENDLCGTPTTSNLKNFESDDEFFEEKSLFEKSRALSRQQIPNDLLEKTRKIDFSEAKNAKNQDLIDKLIDENENLQISLNREQKMTSSLQDDLEKSRRMVIDRDEHIEELKMKLGKAETKASQCESDLTQTSSDLAMERLRCEVLTGELHEIDGIFRNTQSTIQAYADDNDRLEDQCRQAQRTILTLNSKL”, the “soluble on expression in E. coli” value is reported as “not soluble”. With “MSKIARKDVERLIELVGGPDNIASVSHCLTRLRFVLNDTDKADTKQLEALRMVKGCFTNAGQFQVVIGTEVDEVYKVLIELSGKSEASKDESKNAARQNMNIVERGISHLAE” the “soluble on expression in E. coli” value was “not soluble”. With “MSKIIGIDLGTTNSCVAVLEGGEVKVIPNPEGNRTTPSVVAFKNGERLVGEVAKRQAITNPNTIISIKRHMGTDYKVEIEGKQYTPQEISAIILQYLKSYAEDYLGEPVTRAVITVPAYFNDAQRQATKDAGRIAGLEVERIINEPTAAALAYGLDKEEDQTILVYDLGGGTFDVSILELGDGVFEVKATAGDNHLGGDDFDQVIIDYLVNQFKQEHGIDLSKDKMALQRLKDAAEKAKKELSGVTQTQISLPFISANENGPLHLEMTLTRAKFEELSAHLVERTMGPVRQALQDAGLTPADIDKVILVGGSTRIPAVQEAIKRELGKEPHKGVNPDEVVAIGAAIQGGVIAGEVKDVVLLDVTPLSLGIETMGGVFTKLIERNTTIPTSKSQVFTTAADNQTTVDIHVLQGERPMAADNKSLGRFQLTGIPPAPRGVPQIEVTFDIDANGIVHVRAKDLGTNKEQSITIKSSSGLSEEEIQRMIKEAEENAEADRKRKEAAELRNEAD” the “soluble on expression in E. coli” value was “soluble”. In the case of “MSKLYLMSLGCNKNLVDSEIMLGHLSAYELCDEPSKADVLIVNTCGFIDSAKKESINAILDLHEQRKKDSLLVVTGCLMQRYREELMKELPEVDLFTGVGDYERIDEMILKKTNLFSNSTYLQSENSKRIITGSNSHAFIKIAEGCNQKCSFCAIPSFKGKLKSREISSIIAELKDLVARGYKDFSFIAQDTSSYLFDKGEKDGLIRLIDEVEKIKGIRAARILYLYPTSASEALIKRIIASEIFINYFDMPLQHISDNMLKIMKRGANSTRLKEMLNLMKSAPNSFLRTGFIVGHPGESEADFEELCEFVKDFGFDRISVFAYSKEEDTAAFDMEQVPFKVINKRLKIIEKIVDEVIEKSFEKEVGQKRLVVCTGKSSEGEFFIAAKDLRWDREIDGEILINESECGNLEMGQIYECEILQNLDKKLLAKALRKVDANLEHHHHHH”, the “soluble on expression in E. coli” value is reported as “soluble”. For “MSKQAFQKIYTKITNITKATCSLRATGVGNEELATIDGRLAQVVRIQGEDVTLQVFAGTEGIPTDAEVIFMGKAPSLKVGDQLAGRFFNAYGEPIDGGPQPEGKEVEIGGPSVNPVRRKQPSELIATGIAGIDLNNTLVTGQKIPFFADPDQPFNQVMAMVALRAESDKIILGGMGMTNDDYLFFKNTFSNAGALDRIVSFINTTEDPSVERILVPDMALAAAEYFAVEKHEKVLVLLTDMTNYADALAIVSNRMDQIPSKDSMPGSLYSDLAKIYEKAVQFPDGGSITIIAVTTLSGGDITHAVPDNTGYITEGQLYLRRDSNVGKVIVDPFRSLSRLKQLVIGKKTREDHPQVMNAAVRLFSDAANAQTKMENGFDLTDYDNRALEFANDYSRQLLAIDVNVNTTEMLDTAWELFSKHFKPAEVNIKQQLVDTYWKK”, the “soluble on expression in E. coli” value was “not soluble”. In the case of “MSKRCASDRDDKDSEPVKKPRFSIANILDEVEDEEDVEVDVEDVDDVDLSSIPSKSPERSRGRPKIGLKMKEGNLPIECKLEGSELWAKFFDLGTEMIITKSGRRMFPTVKVSFTNVILDALYYIFLDVVPVDSKRYRYIYNKSAWLTAGKAEPVPKNRYYLHPDSPFTGDQLLKHVISFEKTKLTNNEVDKTGHLILNSMHKYQPRIHIVQRQKANPLDPNKVVMSEEKHCTYTFPETQFMAVTAYQNQLITKLKIEKNPFAKGFRDPTGRSPDEMERSPGDMMLSNFYHSSALQQAMFQQCLSKTLQLNPSIMMLYQNVFPTGNSLPAAPTVPGNPAEISIKSE”, the “soluble on expression in E. coli” value is reported as “soluble”. With “MSKRQSSLMSFFTKTPKSEKPEEEVKEKSVEEPKSLKNDTPKISNDSEKKVLKRSNSKTVSSPVKTPRNASKRPKVVVCSSSEGEDDDGDEDFEMKEAEEHESSDESEADENASDCEVVESPESTPQSTPKRGGKKKISKPLLAENTPKSVKMAGKSKKVIPDGEAVSMAGVLDKMDKIMDGEGERKRIVEKTTGAKNKAVELEPAERFDHESFDFLKPDKIRDGFKRPMSDPEYDPKTLWVPPDFHQKQTPGHRQWWTMKSQHFDTILLFKVGKFYETYHMDAVEVVRALNIAFMRGSYAHAGFPEHAASKFADQLMNHGYKVARIEQTETPQMLEERNQKTKTKEKVVRREVCRVTSNGTRTYGVLDGVDLGSASSTLDPTAKHLLAIKEFHNPETGKSSYGVCMIDTTTAHIRIGQFEDDDYRSQLRTLLANVIVVQAIVERGSISSTTKSIINGILFSVPVEHLLPKKQFMTAEDVVRIVSNEDYYGSDASEWPEVLKGMLEDSSILPKPSTDWQLALSAFGAIFWYLRDSLIDVDMLSMRNVTIYNSNSMENDQKKEKIDWNGKNLILDGTALENLNIVPNGRDSHLTSLYYVINKCSTPFGRRLLRSWLLQPTCDPKKLEQRQKAIKWLVSPDASSFMTTATATLKKIPDLDRLLQKIHTIGLKYRSEKHPDSRAIFFDTIKTNQKKIAELLAAIDGFKLCNKLRKEYIKVQKEGEGCELLDELLGNEQEMEEVDENIYFFEKMFDRSTAMKDGKIVPNAGCDEEYDEALNRVKEALNELNDYKDSVAKKYSCSIKFVDSGKVKYLLEMPENTKVSSSFELKSRRKGFIRYSTPDSEQLVAALDAVEKEKSKLGDDATRRVFEQFGHKNPIWLETVKLVSSFDVLTSLALFAKSSPFEMCMPEFDFNATDPYLIVDKGVHPCLALQSRNEVTQTTSFIANSTTMGASEAAVMLLTGPNMGGKSTLMRQTAVLAILAHIGSMVPAFSMRLTPIDRIFTRIGANDRIMCGESTFFIELKETDIMLKNATKHSLLLVDELGRGTSTFDGTAIASAVLQKISDDLACRTFFSTHYHSICDSFTNHPNVRLAHMKCVVDKENNEDPTMEDVTFLYELESGICPKSYGFYAAKLAGIDHQVVRNAYLESNKFASNLIIDPKIRHLVECARDDNFDVGELKRMIEAI” the “soluble on expression in E. coli” value was “not soluble”.
